PMC4705653, “Mcm10 coordinates the timely assembly and activation of the replication fork helicase” (Nucleic Acids Research, 2015)

Molecular target: T1, PKA-Mcm3 (radiolabeled) (budding yeast, UniProt P24279 1-971, 32P label on the PKA tag (protein kinase A with [gamma-32P]-ATP))
T1 construct: Mcm3, budding yeast; not shown: PKA tag, N-terminal, kept
Assay: pull-down; 30 pmol GST-tagged protein on Glutathione Sepharose, varying concentrations of 32P-labelled PKA-tagged protein in solution; GST binding buffer (40 mM Tris–HCl pH 7.5, 100 mM NaCl, 0.1 mM EDTA, 10% glycerol, 0.1% Triton X-100, 1 mM DTT, 0.1 mg/ml BSA), 100 μl, 30°C, 10 min; SDS-PAGE and phosphorimaging; in some panels with 5 mM ATP or ATPγS, or with a third labelled protein (Mcm10, Sld3) added
Settings: both partners purified

T1 sequence (P24279 whole entry): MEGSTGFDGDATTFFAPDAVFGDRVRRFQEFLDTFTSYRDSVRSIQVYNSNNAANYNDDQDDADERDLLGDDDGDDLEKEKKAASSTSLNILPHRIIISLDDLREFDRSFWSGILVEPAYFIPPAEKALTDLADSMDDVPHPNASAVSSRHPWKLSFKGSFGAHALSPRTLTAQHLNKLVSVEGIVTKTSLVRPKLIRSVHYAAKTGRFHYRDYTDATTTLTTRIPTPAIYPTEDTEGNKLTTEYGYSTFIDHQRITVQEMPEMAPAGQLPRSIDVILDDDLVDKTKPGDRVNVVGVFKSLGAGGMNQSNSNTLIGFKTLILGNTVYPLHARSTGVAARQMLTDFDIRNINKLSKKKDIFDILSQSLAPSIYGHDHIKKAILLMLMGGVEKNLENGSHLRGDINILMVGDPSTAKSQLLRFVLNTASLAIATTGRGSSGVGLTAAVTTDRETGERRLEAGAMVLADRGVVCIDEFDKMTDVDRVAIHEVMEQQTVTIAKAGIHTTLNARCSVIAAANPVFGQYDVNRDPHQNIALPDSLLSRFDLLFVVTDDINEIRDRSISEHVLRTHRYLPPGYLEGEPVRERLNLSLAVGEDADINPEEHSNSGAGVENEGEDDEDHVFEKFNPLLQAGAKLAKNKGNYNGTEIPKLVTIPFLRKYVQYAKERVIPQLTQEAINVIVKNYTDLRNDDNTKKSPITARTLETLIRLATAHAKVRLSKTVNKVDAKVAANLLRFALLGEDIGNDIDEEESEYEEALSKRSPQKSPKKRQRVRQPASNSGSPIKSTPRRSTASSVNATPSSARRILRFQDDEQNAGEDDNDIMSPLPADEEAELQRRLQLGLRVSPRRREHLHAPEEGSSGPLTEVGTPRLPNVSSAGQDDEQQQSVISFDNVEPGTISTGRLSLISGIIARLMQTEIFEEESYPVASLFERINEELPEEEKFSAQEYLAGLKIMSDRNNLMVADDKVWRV

B1: GST-Mcm10 (natural protein, budding yeast, UniProt P32354 1-571, looked up)
chain: MNDPREILAVDPYNNITSDEEDEQAIARELEFMERKRQALVERLKRKQEFKKPQDPNFEAIEVPQSPTKNRVKVGSHNATQQGTKFEGSNINEVRLSQLQQQPKPPASTTTYFMEKFQNAKKNEDKQIAKFESMMNARVHTFSTDEKKYVPIITNELESFSNLWVKKRYIPEDDLKRALHEIKILRLGKLFAKIRPPKFQEPEYANWATVGLISHKSDIKFTSSEKPVKFFMFTITDFQHTLDVYIFGKKGVERYYNLRLGDVIAILNPEVLPWRPSGRGNFIKSFNLRISHDFKCILEIGSSRDLGWCPIVNKKTHKKCGSPINISLHKCCDYHREVQFRGTSAKRIELNGGYALGAPTKVDSQPSLYKAKGENGFNIIKGTRKRLSEEEERLKKSSHNFTNSNSAKAFFDEKFQNPDMLANLDNKRRKIIETKKSTALSRELGKIMRRRESSGLEDKSVGERQKMKRTTESALQTGLIQRLGFDPTHGKISQVLKSSVSGSEPKNNLLGKKKTVINDLLHYKKEKVILAPSKNEWFKKRSHREEVWQKHFGSKETKETSDGSASDLEII
notes: Mcm10, budding yeast, full length PCR product in SpeI/XhoI sites of pET-41; source: cloned in pET-41 vector; not shown: GST, N-terminal, kept
binding result: binds
